Results: the Human Domainome abundance scans (Beltran et al. 2025)
± gives the uncertainty stated by the source.

B1: POU domain, class 2, transcription factor 1, residues 285 to 354; numbered along this chain, P14859 (parent)
chain: LEELEQFAKTFKQRRIKLGFTQGDVGLAMGKLYGNDFSQTTISRFEALNLSFKNMCKLKPLLEKWLNDAE

Variants of: B1
Experiment: abundance fitness (aPCA) (normalised: wild type 0, dead -1); higher = more abundant; growth selection in yeast, the domain comes from the species named
Details: Homo sapiens

| Variant | abundance fitness |
| --- | --- |
| LEELEQFAKTFKQRRIKLGFTQGDVGLAMGKLYGNDFKQTTISRFEALNLSFKNMCKLKPLLEKWLNDAE [S38K] | -0.011 ± 0.018 |
| LEELEQFAKTFKQRRIKLGFTQGDVGLAMGKLYGNDFNQTTISRFEALNLSFKNMCKLKPLLEKWLNDAE [S38N] | -0.032 ± 0.046 |
| LEELEQFAKTFKQRRIKLGFTQGDVGLAMGKLYGNDFGQTTISRFEALNLSFKNMCKLKPLLEKWLNDAE [S38G] | 0.023 ± 0.028 |
| LEELEQFAKTFKQRRIKLGFTQGDVGLAMGKLYGNDFAQTTISRFEALNLSFKNMCKLKPLLEKWLNDAE [S38A] | -0.038 ± 0.031 |
| LEELEQFAKTFKQRRIKLGFTQGDVGLAMGKLYGNDFPQTTISRFEALNLSFKNMCKLKPLLEKWLNDAE [S38P] | -0.041 ± 0.022 |
| LEELEQFAKTFKQRRIKLGFTQGDVGLAMGKLYGNDFDQTTISRFEALNLSFKNMCKLKPLLEKWLNDAE [S38D] | 0.048 ± 0.1 |
| LEELEQFAKTFKQRRIKLGFTQGDVGLAMGKLYGNDFFQTTISRFEALNLSFKNMCKLKPLLEKWLNDAE [S38F] | -0.199 ± 0.34 |
| LEELEQFAKTFKQRRIKLGFTQGDVGLAMGKLYGNDFEQTTISRFEALNLSFKNMCKLKPLLEKWLNDAE [S38E] | -0.03 ± 0.037 |
| LEELEQFAKTFKQRRIKLGFTQGDVGLAMGKLYGNSFSQTTISRFEALNLSFKNMCKLKPLLEKWLNDAE [D36S] | -0.05 ± 0.029 |
| LEELEQFAKTFKQRRIKLGFTQGDVGLAMGKLYGNFFSQTTISRFEALNLSFKNMCKLKPLLEKWLNDAE [D36F] | -0.19 ± 0.062 |
| LEELEQFAKTFKQRRIKLGFTQGDVGLAMGKLYGNIFSQTTISRFEALNLSFKNMCKLKPLLEKWLNDAE [D36I] | -0.006 ± 0.075 |
| LEELEQFAKTFKQRRIKLGFTQGDVGLAMGKLYGNGFSQTTISRFEALNLSFKNMCKLKPLLEKWLNDAE [D36G] | -0.092 ± 0.022 |
| LEELEQFAKTFKQRRIKLGFTQGDVGLAMGKLYGNPFSQTTISRFEALNLSFKNMCKLKPLLEKWLNDAE [D36P] | -0.058 ± 0.047 |
| LEELEQFAKTFKQRRIKLGFTQGDVGLAMGKLYGNMFSQTTISRFEALNLSFKNMCKLKPLLEKWLNDAE [D36M] | -0.121 ± 0.12 |
| LEELEQFAKTFKQRRIKLGFTQGDVGLAMGKLYGNYFSQTTISRFEALNLSFKNMCKLKPLLEKWLNDAE [D36Y] | -0.037 ± 0.03 |
| LEELEQFAKTFKQRRIKLGFTQGDVGLAMGKLYGNEFSQTTISRFEALNLSFKNMCKLKPLLEKWLNDAE [D36E] | -0.027 ± 0.039 |
| LEELEQFAKTFKQRRIKLGFTQGDVGLAMGKLYGNVFSQTTISRFEALNLSFKNMCKLKPLLEKWLNDAE [D36V] | -0.029 ± 0.044 |
| LEELEQFAKTFKQRRIKLGFTQGDVGLAMGKLYGNAFSQTTISRFEALNLSFKNMCKLKPLLEKWLNDAE [D36A] | -0.049 ± 0.035 |
| LEELEQFAKTFKQRRIKLGFTQGDVGLAMGKLYGNRFSQTTISRFEALNLSFKNMCKLKPLLEKWLNDAE [D36R] | -0.047 ± 0.023 |

| Variant | abundance fitness |
| --- | --- |
| LEELEQFAKTFKQRRIKLGFTQGDVGLAMGKLYGNKFSQTTISRFEALNLSFKNMCKLKPLLEKWLNDAE [D36K] | -0.028 ± 0.058 |
| LEELEQFAKTFKQRRIKLGFTQGDVGLAMGKLYGNCFSQTTISRFEALNLSFKNMCKLKPLLEKWLNDAE [D36C] | -0.036 ± 0.026 |
| LEELEQFAKTFKQRRIKLGFTQGDVGLAMGKLYGNLFSQTTISRFEALNLSFKNMCKLKPLLEKWLNDAE [D36L] | 0.014 ± 0.041 |
| LEELEQFAKTFKQRRIKLGFTQGDVGLAMGKLYGNNFSQTTISRFEALNLSFKNMCKLKPLLEKWLNDAE [D36N] | -0.043 ± 0.068 |
| LEELEQFAKTFKQRRIKLGFTQGDVGLAMGKLYGNQFSQTTISRFEALNLSFKNMCKLKPLLEKWLNDAE [D36Q] | -0.034 ± 0.031 |
| LEELEQFAKTFKQRRIKLGFTQGDVGLAMGKLYGNHFSQTTISRFEALNLSFKNMCKLKPLLEKWLNDAE [D36H] | -0.077 ± 0.038 |
| LEELEQFAKTFKQRRIKLGFTQGDVGLAMGKLYGQDFSQTTISRFEALNLSFKNMCKLKPLLEKWLNDAE [N35Q] | 0 ± 0.021 |
| LEELEQFAKTFKQRRIKLGFTQGDVGLAMGKLYGYDFSQTTISRFEALNLSFKNMCKLKPLLEKWLNDAE [N35Y] | -0.494 ± 0.36 |
| LEELEQFAKTFKQRRIKLGFTQGDVGLAMGKLYGMDFSQTTISRFEALNLSFKNMCKLKPLLEKWLNDAE [N35M] | -0.108 ± 0.22 |
| LEELEQFAKTFKQRRIKLGFTQGDVGLAMGKLYGVDFSQTTISRFEALNLSFKNMCKLKPLLEKWLNDAE [N35V] | -0.057 ± 0.34 |
| LEELEQFAKTFKQRRIKLGFTQGDVGLAMGKLYGGDFSQTTISRFEALNLSFKNMCKLKPLLEKWLNDAE [N35G] | 0.053 ± 0.021 |
| LEELEQFAKTFKQRRIKLGFTQGDVGLAMGKLYGIDFSQTTISRFEALNLSFKNMCKLKPLLEKWLNDAE [N35I] | 0.03 ± 0.1 |
| LEELEQFAKTFKQRRIKLGFTQGDVGLAMGKLYGRDFSQTTISRFEALNLSFKNMCKLKPLLEKWLNDAE [N35R] | 0.008 ± 0.021 |
| LEELEQFAKTFKQRRIKLGFTQGDVGLAMGKLYGKDFSQTTISRFEALNLSFKNMCKLKPLLEKWLNDAE [N35K] | 0.006 ± 0.022 |
| LEELEQFAKTFKQRRIKLGFTQGDVGLAMGKLYGADFSQTTISRFEALNLSFKNMCKLKPLLEKWLNDAE [N35A] | -0.011 ± 0.019 |
| LEELEQFAKTFKQRRIKLGFTQGDVGLAMGKLYGEDFSQTTISRFEALNLSFKNMCKLKPLLEKWLNDAE [N35E] | 0.025 ± 0.022 |
| LEELEQFAKTFKQRRIKLGFTQGDVGLAMGKLYGPDFSQTTISRFEALNLSFKNMCKLKPLLEKWLNDAE [N35P] | -0.031 ± 0.02 |
| LEELEQFAKTFKQRRIKLGFTQGDVGLAMGKLYGHDFSQTTISRFEALNLSFKNMCKLKPLLEKWLNDAE [N35H] | 0.073 ± 0.046 |
| LEELEQFAKTFKQRRIKLGFTQGDVGLAMGKLYGTDFSQTTISRFEALNLSFKNMCKLKPLLEKWLNDAE [N35T] | 0.002 ± 0.02 |
